Data reported in article PMC8881745 (Protein expression and purification, 2022).

Biological target: PPP1CA(2-330), His6-MBP tag cleaved by TEV protease (human, UniProt P62136 2-330)
Experiment: SEC

Chain of PPP1CA(2-330), His6-MBP tag cleaved by TEV protease (P62136 2-330): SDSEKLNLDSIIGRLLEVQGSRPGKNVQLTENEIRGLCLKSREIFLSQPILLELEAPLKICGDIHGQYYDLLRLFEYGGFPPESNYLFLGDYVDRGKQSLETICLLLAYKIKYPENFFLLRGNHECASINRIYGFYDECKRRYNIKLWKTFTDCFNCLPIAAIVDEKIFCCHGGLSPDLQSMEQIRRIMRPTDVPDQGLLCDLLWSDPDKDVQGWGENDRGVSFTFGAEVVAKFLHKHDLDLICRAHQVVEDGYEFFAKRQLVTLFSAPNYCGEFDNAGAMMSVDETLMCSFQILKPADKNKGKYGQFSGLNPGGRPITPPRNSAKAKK

stoichiometry N: 1
B1: SHOC2, native full-length (natural protein, human, UniProt Q9UQ13 1-582, looked up)
chain: MSSSLGKEKDSKEKDPKVPSAKEREKEAKASGGFGKESKEKEPKTKGKDAKDGKKDSSAAQPGVAFSVDNTIKRPNPAPGTRKKSSNAEVIKELNKCREENSMRLDLSKRSIHILPSSIKELTQLTELYLYSNKLQSLPAEVGCLVNLMTLALSENSLTSLPDSLDNLKKLRMLDLRHNKLREIPSVVYRLDSLTTLYLRFNRITTVEKDIKNLSKLSMLSIRENKIKQLPAEIGELCNLITLDVAHNQLEHLPKEIGNCTQITNLDLQHNELLDLPDTIGNLSSLSRLGLRYNRLSAIPRSLAKCSALEELNLENNNISTLPESLLSSLVKLNSLTLARNCFQLYPVGGPSQFSTIYSLNMEHNRINKIPFGIFSRAKVLSKLNMKDNQLTSLPLDFGTWTSMVELNLATNQLTKIPEDVSGLVSLEVLILSNNLLKKLPHGLGNLRKLRELDLEENKLESLPNEIAYLKDLQKLVLTNNQLTTLPRGIGHLTNLTHLGLGENLLTHLPEEIGTLENLEELYLNDNPNLHSLPFELALCSKLSIMSIENCPLSHLPPQIVAGGPSFIIQFLKMQGPYRAMV
